This data set addresses beta-galactosidase (UniProt P00722 P00722:2-1024). Briefly: EMSA; data not shown; negative control protein. The settings on record: tags: pure protein, chain copies: 4, label: 32P. The protocol: 11:1475-1489). Protein extracts from lysogens were prepared as described (see, for example, Cowell, I. G. and H. C. Hurst. 199. Cloning transcription factors from a cDNA expression library, p.120-122. In D. S. Latchman (ed.), Transcription factors: a practical approach. IRL Press, New York). Competitors were pre-incubated with nuclear extract for 20 minutes prior to addition of the probe. Oligonucleotides sequences of probes and competitors for EMSA analyses are shown below.
To verify that the cDNA encoded a protein with the expected binding specificities of BP1, namely, the ability to bind to Silencers I and II upstream of the β-globin gene and to a sequence −530 bp upstream of the δ-globin gene (see, for example, Berg, P. E., S. Abhyankar, and M. Chase. 1994. The high mobility group protein HMG-I(Y) binds to a silencer DNA sequence upstream of the human β-globin gene. Blood 84 Suppl 1:262a), an EMSA competition assay was performed. The putative BP1 protein, fused to β-galactosidase, was expressed from a λ lysogen, as described above. This fusion protein was partially purified and incubated with the Silencer II probe used for screening the library, resulting in a single shifted band, indicated by the arrow (FIG. 2, lane 1). The band at the top marks the position of the wells, and the band at the bottom contains the unshifted probe. […]
For orientation: In EMSA bound probe runs differently from free probe, usually more slowly.

Sequence of beta-galactosidase (P00722 2-1024, one chain of several): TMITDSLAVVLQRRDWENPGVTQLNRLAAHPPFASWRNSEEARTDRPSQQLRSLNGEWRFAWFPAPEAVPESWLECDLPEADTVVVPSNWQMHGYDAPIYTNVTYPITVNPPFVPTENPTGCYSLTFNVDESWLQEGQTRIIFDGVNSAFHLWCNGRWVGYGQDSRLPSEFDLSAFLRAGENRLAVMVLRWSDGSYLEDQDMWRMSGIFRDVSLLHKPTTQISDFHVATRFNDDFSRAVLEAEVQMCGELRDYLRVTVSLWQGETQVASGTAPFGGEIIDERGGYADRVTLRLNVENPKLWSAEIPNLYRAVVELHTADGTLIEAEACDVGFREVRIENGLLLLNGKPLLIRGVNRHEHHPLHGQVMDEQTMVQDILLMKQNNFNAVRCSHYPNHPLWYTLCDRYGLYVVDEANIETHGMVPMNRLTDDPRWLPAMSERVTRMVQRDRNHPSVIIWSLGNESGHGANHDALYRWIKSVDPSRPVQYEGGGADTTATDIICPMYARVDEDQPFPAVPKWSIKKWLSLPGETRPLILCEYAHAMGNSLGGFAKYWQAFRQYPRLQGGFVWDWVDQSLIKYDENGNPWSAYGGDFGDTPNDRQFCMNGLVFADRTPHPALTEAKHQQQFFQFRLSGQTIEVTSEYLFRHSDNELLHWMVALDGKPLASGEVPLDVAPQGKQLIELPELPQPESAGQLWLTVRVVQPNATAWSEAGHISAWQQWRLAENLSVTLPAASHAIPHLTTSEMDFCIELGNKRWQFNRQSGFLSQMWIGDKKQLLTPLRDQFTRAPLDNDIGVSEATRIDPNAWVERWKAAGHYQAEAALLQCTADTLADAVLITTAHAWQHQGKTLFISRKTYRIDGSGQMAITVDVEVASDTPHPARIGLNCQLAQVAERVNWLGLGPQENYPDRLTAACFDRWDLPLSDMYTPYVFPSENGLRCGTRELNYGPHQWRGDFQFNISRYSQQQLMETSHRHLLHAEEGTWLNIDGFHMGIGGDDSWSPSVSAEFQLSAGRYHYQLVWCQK

B1: -300 beta (Silencer II) (dsDNA)
DNA 1: TTCTTATTTGTGTAATAAGAAAATTGGGAAAACGATCTTCAATATGCTTACCAAGCTG
DNA 2: CAGCTTGGTAAGCATATTGAAGATCGTTTTCCCAATTTTCTTATTACACAAATAAGAA
As for B1, the binding result is reported as “no binding”.

(Values after patent US20030171273, “Novel transcription factor, BP1” (published 2003).)
